# Assay results published in the Human Domainome abundance scans (Beltran et al. 2025).
# ± gives the uncertainty stated by the source.
# B1: GAS2-like protein 1, residues 209 to 276; numbered along this chain, Q99501 (parent)
# chain: DELVREILGRCTCPDQFPMIKVSEGKYRVGDSSLLIFVRVLRSHVMVRVGGGWDTLEHYLDKHDPCRC
# Variants of: B1
# Experiment: abundance fitness (aPCA) (normalised: wild type 0, dead -1); higher = more abundant; growth selection in yeast, the domain comes from the species named
# Details: Homo sapiens
row,Variant,abundance fitness
1,E57D,-0.21 ± 0.2
2,E57V,-0.765 ± 0.15
3,E24L,-0.715 ± 0.19
4,L35R,-0.195 ± 0.052
5,L35G,-0.383 ± 0.075
6,L35C,-0.013 ± 0.053
7,L35F,-0.187 ± 0.06
8,L35V,-0.041 ± 0.051
9,L41W,0.032 ± 0.041
10,L41Y,0.086 ± 0.09
11,L41I,0.148 ± 0.056
12,L41E,0.143 ± 0.051
13,L41G,-0.293 ± 0.044
14,S33R,-0.043 ± 0.039
15,S33D,0.039 ± 0.057
16,S33E,0.113 ± 0.057
17,S33V,-0.647 ± 0.061
18,S33A,-0.019 ± 0.043
19,S33C,-0.115 ± 0.048
20,S33F,-0.549 ± 0.11
21,S33K,0.028 ± 0.068
22,C66G,-0.848 ± 0.12
23,C66L,-0.875 ± 0.072
24,C66W,-1.01 ± 0.2

row,Variant,abundance fitness
1,C66S,-0.621 ± 0.083
2,C66E,-0.693 ± 0.15
3,C66Q,-0.608 ± 0.13
4,D1R,-0.624 ± 0.2
5,D1S,-0.205 ± 0.13
6,D1W,-0.621 ± 0.17
7,D1K,-0.233 ± 0.23
8,D1G,-0.596 ± 0.17
9,D1Y,-0.574 ± 0.15
10,H63E,-0.11 ± 0.17
11,H63V,-0.017 ± 0.061
12,H63A,-0.434 ± 0.12
13,H63Y,-0.081 ± 0.057
14,S23D,0.028 ± 0.05
15,S23P,-0.914 ± 0.12
16,S23V,-0.674 ± 0.073
17,S23H,-0.325 ± 0.058
18,S23Q,-0.141 ± 0.089
19,G50L,-0.473 ± 0.05
20,G50C,-0.517 ± 0.078
21,G50H,-0.205 ± 0.072
22,G50V,-0.541 ± 0.12
23,G50M,-0.28 ± 0.085
24,G50Y,-0.5 ± 0.12

row,Variant,abundance fitness
1,G50S,-0.143 ± 0.05
2,G50P,-0.039 ± 0.043
3,G50D,0.076 ± 0.068
4,G50T,-0.259 ± 0.051
5,R28T,-0.467 ± 0.1
6,R28F,-0.668 ± 0.14
7,R28H,-0.549 ± 0.13
8,R28E,-0.516 ± 0.063
9,R28M,0.041 ± 0.061
10,V4C,-0.717 ± 0.18
11,V4L,-0.388 ± 0.053
12,V4R,-0.71 ± 0.12
13,V4T,-0.833 ± 0.17
14,V4F,-0.35 ± 0.072
15,V4Q,-1.01 ± 0.24
16,V4W,-0.796 ± 0.34
17,V4N,-0.876 ± 0.18
18,V4A,-0.804 ± 0.095
19,G52S,0.063 ± 0.034
20,G52K,0.136 ± 0.062
21,G52Y,0.08 ± 0.057
22,G52R,0.021 ± 0.031
23,G52N,-0.032 ± 0.068
24,G52Q,0.166 ± 0.039

row,Variant,abundance fitness
1,D61H,-0.274 ± 0.081
2,D61F,-0.203 ± 0.056
3,D61N,-0.094 ± 0.054
4,D61L,-0.063 ± 0.04
5,D61V,-0.246 ± 0.034
6,E2T,0.012 ± 0.1
7,E2P,-0.218 ± 0.097
8,E2Y,-0.057 ± 0.065
9,G30H,-0.653 ± 0.13
10,G30P,-0.506 ± 0.088
11,K26W,0.132 ± 0.077
12,K26A,-0.063 ± 0.16
13,S43P,0.01 ± 0.059
14,S43Y,-0.405 ± 0.43
15,S43W,-0.462 ± 0.32
16,L34H,0.112 ± 0.12
17,L34C,0.129 ± 0.065
18,L34A,0.191 ± 0.043
19,L34N,0.094 ± 0.083
20,L34I,0.102 ± 0.063
21,L34M,0.131 ± 0.048
22,L34T,0.05 ± 0.047
23,F17M,-0.777 ± 0.16
24,F17K,-0.831 ± 0.13

row,Variant,abundance fitness
1,F17C,-1 ± 0.23
2,R39G,-0.242 ± 0.06
3,R39W,-0.695 ± 0.23
4,R39C,-0.216 ± 0.11
5,R39E,-0.179 ± 0.074
6,Q16E,-0.42 ± 0.12
7,Q16H,-0.486 ± 0.095
8,Q16I,-0.351 ± 0.077
9,Q16M,-0.276 ± 0.048
10,V22T,-0.662 ± 0.17
11,V22G,-0.916 ± 0.39
12,Y27M,-0.597 ± 0.28
13,Y27V,-0.996 ± 0.15
14,Y27W,0.079 ± 0.087
15,Y27L,-0.849 ± 0.11
16,Y27R,-0.85 ± 0.14
17,Y27F,-0.579 ± 0.11
18,Y27G,-0.891 ± 0.12
19,M46E,-0.455 ± 0.14
20,M46Y,0.109 ± 0.11
21,M46C,-0.24 ± 0.15
22,M46S,-0.642 ± 0.087
23,R42Q,-0.005 ± 0.057
24,R42E,-0.136 ± 0.11

row,Variant,abundance fitness
1,R42A,-0.066 ± 0.068
2,R42D,0.134 ± 0.075
3,R42G,0.121 ± 0.05
4,R42C,-0.187 ± 0.069
5,R42V,-0.639 ± 0.12
6,P65I,-0.711 ± 0.4
7,P65Y,-0.826 ± 0.16
8,P65R,-0.625 ± 0.072
9,P65C,-0.819 ± 0.22
10,P65A,-0.591 ± 0.11
11,P14A,-0.142 ± 0.063
12,P14M,-0.457 ± 0.076
13,P14C,-0.439 ± 0.11
14,P14Q,-0.161 ± 0.074
15,P14S,-0.162 ± 0.049
16,P14R,-0.147 ± 0.045
17,I36M,0.058 ± 0.11
18,I36S,-0.673 ± 0.13
19,I36Q,-0.992 ± 0.34
20,I36F,-0.346 ± 0.11
21,I36C,0.169 ± 0.097
22,I36A,-0.209 ± 0.076
23,H44F,-0.532 ± 0.13
24,H44N,-0.376 ± 0.25

row,Variant,abundance fitness
1,H44R,0.142 ± 0.055
2,H44T,0.074 ± 0.061
3,H44E,0.222 ± 0.066
4,H44L,-0.341 ± 0.092
5,H44S,0.099 ± 0.074
6,R5H,-0.15 ± 0.094
7,R5T,-0.059 ± 0.053
8,R5K,0.091 ± 0.055
9,R5A,0.056 ± 0.052
10,R5C,-0.316 ± 0.41
11,V49Y,-0.035 ± 0.058
12,V49G,-0.25 ± 0.14
13,V49R,-0.247 ± 0.055
14,V49M,-0.133 ± 0.06
15,V49I,-0.133 ± 0.058
16,V49Q,0.146 ± 0.062
17,L8K,-0.948 ± 0.13
18,L8H,-0.436 ± 0.2
19,L8D,-0.702 ± 0.25
20,L8W,-0.886 ± 0.12
21,L8M,-0.254 ± 0.1
22,L8E,-0.737 ± 0.089
23,L8F,-0.704 ± 0.12
